Data from the supplement of paper PMC9112550, “Optimization of the antimicrobial peptide Bac7 by deep mutational scanning” (BMC Biology, 2022).

Test system: Escherichia coli TOP10
Assay: shrunken log2 fold change of peptide-encoding DNA abundance (4.5 h post-induction vs induction); higher = less antimicrobial activity (less host growth inhibition)
Details: time post-induction: 4.5 h; library: site-saturation at positions 5, 18, 19, 20
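Also: peptides expressed intracellularly from a pBAD plasmid library in pooled LB shake-flask culture, induced with 0.3% L-arabinose, DNA abundance read by NGS, three biological replicates, DESeq2 with apeglm shrinkage.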

| Sequence | shrunken log2 fold change |
| --- | --- |
| RRIRMRPPRLPRPRPRPTERPRP | 0.582 |
| RRIRSRPPRLPRPRPRPGGDPRP | 0.514 |
| RRIRPRPPRLPRPRPRPMNQPRP | 0.00354 |
| RRIRWRPPRLPRPRPRPMCYPRP | -0.308 |
| RRIRTRPPRLPRPRPRPAGNPRP | 0.00723 |
| RRIRHRPPRLPRPRPRPAMPPRP | -0.0758 |
| RRIRLRPPRLPRPRPRPWCAPRP | -0.0114 |
| RRIRRRPPRLPRPRPRPGWDPRP | 0.0298 |
| RRIRQRPPRLPRPRPRPHESPRP | -0.126 |
| RRIRTRPPRLPRPRPRPGGYPRP | -0.0912 |
| RRIRHRPPRLPRPRPRPFHKPRP | -0.0218 |
| RRIRGRPPRLPRPRPRPMILPRP | -0.0452 |
| RRIRTRPPRLPRPRPRPKKSPRP | -0.106 |
| RRIRDRPPRLPRPRPRPEPMPRP | 0.035 |
| RRIRKRPPRLPRPRPRPQKPPRP | 0.00856 |
| RRIRTRPPRLPRPRPRPQYEPRP | 0.00772 |
| RRIRKRPPRLPRPRPRPMLCPRP | -0.0829 |
| RRIRGRPPRLPRPRPRPEERPRP | 0.55 |
| RRIRDRPPRLPRPRPRPQIFPRP | -0.00965 |
| RRIRPRPPRLPRPRPRPETVPRP | 0.207 |
| RRIRVRPPRLPRPRPRPKPEPRP | 0.326 |
| RRIRYRPPRLPRPRPRPADTPRP | -0.00151 |
| RRIRFRPPRLPRPRPRPNNVPRP | -0.179 |
| RRIRFRPPRLPRPRPRPTGIPRP | -0.26 |
| RRIRMRPPRLPRPRPRPSNYPRP | -0.078 |

| Sequence | shrunken log2 fold change |
| --- | --- |
| RRIRVRPPRLPRPRPRPVMQPRP | -0.0429 |
| RRIRERPPRLPRPRPRPSAQPRP | -0.167 |
| RRIRNRPPRLPRPRPRPRNGPRP | -0.0619 |
| RRIRTRPPRLPRPRPRPYCPPRP | -0.821 |
| RRIRTRPPRLPRPRPRPSNIPRP | -0.329 |
| RRIRRRPPRLPRPRPRPVCMPRP | 0.32 |
| RRIRCRPPRLPRPRPRPSMFPRP | -0.651 |
| RRIRMRPPRLPRPRPRPGFIPRP | 0.192 |
| RRIRPRPPRLPRPRPRPMDNPRP | -0.683 |
| RRIRMRPPRLPRPRPRPRLDPRP | 0.897 |
| RRIRVRPPRLPRPRPRPSLHPRP | -0.415 |
| RRIRYRPPRLPRPRPRPAQGPRP | -0.0469 |
| RRIRSRPPRLPRPRPRPEWKPRP | 0.14 |
| RRIRIRPPRLPRPRPRPRDLPRP | 0.067 |
| RRIRARPPRLPRPRPRPPWMPRP | 0.463 |
| RRIRCRPPRLPRPRPRPSFLPRP | -0.718 |
| RRIRSRPPRLPRPRPRPHNGPRP | 0.00483 |
| RRIRIRPPRLPRPRPRPKLQPRP | 0.173 |
| RRIRIRPPRLPRPRPRPWNDPRP | -0.216 |
| RRIRTRPPRLPRPRPRPVYTPRP | -1.09 |
| RRIRLRPPRLPRPRPRPTFFPRP | 0.14 |
| RRIRYRPPRLPRPRPRPILNPRP | -0.768 |
| RRIRFRPPRLPRPRPRPSHNPRP | -0.782 |
| RRIRYRPPRLPRPRPRPRQHPRP | -0.571 |
| RRIRVRPPRLPRPRPRPMSQPRP | -0.296 |

| Sequence | shrunken log2 fold change |
| --- | --- |
| RRIRNRPPRLPRPRPRPKQAPRP | -0.00865 |
| RRIRKRPPRLPRPRPRPWVTPRP | 0.000269 |
| RRIRIRPPRLPRPRPRPNEAPRP | 0.135 |
| RRIRDRPPRLPRPRPRPGGWPRP | 0.975 |
| RRIRKRPPRLPRPRPRPSRLPRP | 0.111 |
| RRIRRRPPRLPRPRPRPITPPRP | 0.243 |
| RRIRWRPPRLPRPRPRPCEGPRP | 0.00476 |
| RRIRARPPRLPRPRPRPANWPRP | 0.215 |
| RRIRYRPPRLPRPRPRPFHPPRP | -0.146 |
| RRIRKRPPRLPRPRPRPIGKPRP | 0.0962 |
| RRIRWRPPRLPRPRPRPPRGPRP | 0.584 |
| RRIRYRPPRLPRPRPRPSVEPRP | -0.481 |
| RRIRKRPPRLPRPRPRPLNCPRP | -0.0221 |
| RRIRVRPPRLPRPRPRPIFRPRP | 0.0423 |
| RRIRERPPRLPRPRPRPKCLPRP | -0.0209 |
| RRIRSRPPRLPRPRPRPQWAPRP | 0.0253 |
| RRIRHRPPRLPRPRPRPFQEPRP | -0.00966 |
| RRIRWRPPRLPRPRPRPDLTPRP | 0.251 |
| RRIRMRPPRLPRPRPRPDLEPRP | 1.54 |
| RRIRMRPPRLPRPRPRPCMDPRP | 0.104 |
| RRIRCRPPRLPRPRPRPTWEPRP | -0.0631 |
| RRIRDRPPRLPRPRPRPCAPPRP | -0.0226 |
| RRIRGRPPRLPRPRPRPGTDPRP | 0.472 |
| RRIRTRPPRLPRPRPRPWFIPRP | -0.64 |
| RRIRLRPPRLPRPRPRPISSPRP | 0.106 |

| Sequence | shrunken log2 fold change |
| --- | --- |
| RRIRARPPRLPRPRPRPARNPRP | 0.364 |
| RRIRNRPPRLPRPRPRPPVAPRP | 0.239 |
| RRIRMRPPRLPRPRPRPVPIPRP | 0.0109 |
| RRIRWRPPRLPRPRPRPNSIPRP | -0.396 |
| RRIRFRPPRLPRPRPRPFSFPRP | -0.499 |
| RRIRSRPPRLPRPRPRPQIPPRP | -0.538 |
| RRIRCRPPRLPRPRPRPREVPRP | 0.415 |
| RRIRGRPPRLPRPRPRPAMSPRP | 0.508 |
| RRIRYRPPRLPRPRPRPAKNPRP | -0.508 |
| RRIRHRPPRLPRPRPRPMYTPRP | 0.588 |
| RRIRHRPPRLPRPRPRPIEKPRP | -0.00776 |
| RRIRKRPPRLPRPRPRPQTDPRP | -0.00442 |
| RRIRKRPPRLPRPRPRPWGRPRP | 0.179 |
| RRIRARPPRLPRPRPRPCSLPRP | -0.272 |
| RRIRNRPPRLPRPRPRPSSQPRP | -0.208 |
| RRIRDRPPRLPRPRPRPNEQPRP | -0.0164 |
| RRIRNRPPRLPRPRPRPDWMPRP | -0.0128 |
| RRIRWRPPRLPRPRPRPRFVPRP | 0.139 |
| RRIRRRPPRLPRPRPRPCLAPRP | 0.242 |
| RRIRNRPPRLPRPRPRPYCNPRP | -0.672 |
| RRIRYRPPRLPRPRPRPHPCPRP | -0.125 |
| RRIRGRPPRLPRPRPRPASKPRP | 0.453 |
| RRIRFRPPRLPRPRPRPNRWPRP | 0.0144 |
| RRIRDRPPRLPRPRPRPPFQPRP | 0.193 |
| RRIRARPPRLPRPRPRPVFSPRP | -0.0817 |

| Sequence | shrunken log2 fold change |
| --- | --- |
| RRIRMRPPRLPRPRPRPGTHPRP | 0.056 |
| RRIRPRPPRLPRPRPRPWWTPRP | -0.311 |
| RRIRCRPPRLPRPRPRPWLFPRP | -0.179 |
| RRIRKRPPRLPRPRPRPVENPRP | 0.198 |
| RRIRMRPPRLPRPRPRPDGKPRP | 0.322 |
| RRIRGRPPRLPRPRPRPRRWPRP | 0.841 |
| RRIRLRPPRLPRPRPRPIWTPRP | 0.0256 |
| RRIRTRPPRLPRPRPRPILHPRP | -0.324 |
| RRIRHRPPRLPRPRPRPIRRPRP | 0.0591 |
| RRIRKRPPRLPRPRPRPCCCPRP | 0.415 |
| RRIRDRPPRLPRPRPRPHVDPRP | 0.07 |
| RRIRPRPPRLPRPRPRPIVNPRP | -0.166 |
| RRIRFRPPRLPRPRPRPMWGPRP | -0.136 |
| RRIRTRPPRLPRPRPRPDWFPRP | -0.112 |
| RRIRSRPPRLPRPRPRPFMNPRP | -0.147 |
| RRIRKRPPRLPRPRPRPMHRPRP | 0.0595 |
| RRIRGRPPRLPRPRPRPGIEPRP | 0.118 |
| RRIRMRPPRLPRPRPRPEETPRP | 0.0205 |
| RRIRPRPPRLPRPRPRPPKHPRP | 0.499 |
| RRIRVRPPRLPRPRPRPRCAPRP | 0.517 |
| RRIRLRPPRLPRPRPRPDSMPRP | -0.166 |
| RRIRPRPPRLPRPRPRPCTKPRP | -0.244 |
| RRIRERPPRLPRPRPRPTEHPRP | -0.144 |
| RRIRYRPPRLPRPRPRPQRSPRP | -0.129 |
| RRIRKRPPRLPRPRPRPVHDPRP | 0.0707 |
